Data on one protein can be found in FireProtDB (doi:10.1006/jmbi.1999.2732).

For this series the following is noted: Homo sapiens, Thermal, DSC, Sodium phosphate 50 mM, reversible: no, whole UniProt chain shown.

B1: Annexin A1 wild type, P04083 (protein)
chain: MAMVSEFLKQAWFIENEEQEYVQTVKSSKGGPGSAVSPYPTFNPSSDVAALHKAIMVKGVDEATIIDILTKRNNAQRQQIKAAYLQETGKPLDETLKKALTGHLEEVVLALLKTPAQFDADELRAAMKGLGTDEDTLIEILASRTNKEIRDINRVYREELKRDLAKDITSDTSGDFRNALLSLAKGDRSEDFGVNEDLADSDARALYEAGERRKGTDVNVFNTILTTRSYPQLRRVFQKYTKYSKHDMNKVLDLELKGDIEKCLTAIVKCATSKPAFFAEKLHQAMKGVGTRHKALIRIMVSRSEIDMNDIKAFYQKMYGISLCQAILDETKGDYEKILVALCGGN
With B1, the Tm came to 41.1 °C (pH 3.2); 48.5 °C (pH 3.4); 56.4 °C (pH 3.8); 62.3 °C (pH 4.5); 62.7 °C (pH 5); 61.8 °C (pH 6). Besides, the Tm is, setting by setting: (pH 7) 59.9 °C; (pH 8) 58.5 °C. In addition, the “unfolding enthalpy (calorimetric)” value came out at 102 kcal/mol (pH 3.2); 139 kcal/mol (pH 3.4); 152 kcal/mol (pH 3.8); 192 kcal/mol (pH 4.5); 203 kcal/mol (pH 5); 197 kcal/mol (pH 6). The “unfolding enthalpy (calorimetric)” value reads like this: (pH 7) 200 kcal/mol; (pH 8) 197 kcal/mol. Also, the “unfolding enthalpy (van 't Hoff)” value is, setting by setting: (pH 3.2) 101 kcal/mol; (pH 3.4) 119 kcal/mol; (pH 3.8) 142 kcal/mol; (pH 4.5) 200 kcal/mol; (pH 5) 206 kcal/mol; (pH 6) 224 kcal/mol. The “unfolding enthalpy (van 't Hoff)” value runs as follows: (pH 7) 220 kcal/mol; (pH 8) 215 kcal/mol.
